Here are results for one molecule from paper PMC10273338.

For orientation: Kd means a measure of binding affinity in units of concentration. Low values mean higher affinity, high ones lower affinity. What is called koff is the rate constant with which the complex falls apart. A low value points to a long-lived complex. The kon is the rate constant with which the complex forms. Read a low kon as slower complex formation.

The assay has as its target T1, HspB8, Q9UJY1.
T1 chain: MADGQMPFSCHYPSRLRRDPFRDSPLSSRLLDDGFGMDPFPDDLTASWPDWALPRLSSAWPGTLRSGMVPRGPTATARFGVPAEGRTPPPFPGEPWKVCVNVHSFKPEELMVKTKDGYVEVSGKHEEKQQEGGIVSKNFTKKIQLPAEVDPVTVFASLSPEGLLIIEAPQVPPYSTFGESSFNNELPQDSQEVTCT
Briefly: SPR; BIACORE X; HspB8 amine-coupled to a CM5 chip (7400 RU); running buffer 10 mM HEPES pH 7.4, 150 mM NaCl, 3 mM EDTA, 0.005% P20; 10 uL/min; Langmuir 1:1 fit. Particulars: remark: other sources report otherwise. For orientation: SPR reads the build-up and loss of mass on a sensor chip optically.

B1: HspB8, Q9UJY1 1-196 (natural protein)
chain: MADGQMPFSCHYPSRLRRDPFRDSPLSSRLLDDGFGMDPFPDDLTASWPDWALPRLSSAWPGTLRSGMVPRGPTATARFGVPAEGRTPPPFPGEPWKVCVNVHSFKPEELMVKTKDGYVEVSGKHEEKQQEGGIVSKNFTKKIQLPAEVDPVTVFASLSPEGLLIIEAPQVPPYSTFGESSFNNELPQDSQEVTCT
With B1, the Ka worked out at 5.2e+06 M⁻¹, the equilibrium dissociation constant (Kd) is 190 nM, the koff was determined as 0.00048 s⁻¹ and the kon turned out to be 2500 M⁻¹ s⁻¹.
